Assay results: patent US20120090043A1, “TARGETS FOR RETROVIRUS ASSOCIATED DISEASES” (priority 2009, published 2012)

How the values were obtained:
[1] = tested on: HIV-1 LTR promoter transactivation by HIV-1 Tat; experiment: Transactivation assay, HIV-1 LTR luciferase reporter with HIV-1 Tat; format: cell-based; settings: HEK293 cells co-transfected with pHIV1LTR-Luc, HIV-1 Tat and the human ORF; relative luciferase activity 24 h post-transfection; positive if >=2 or <=0.5 and p<0.05
How it was run: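 HEK293 cells (10^4) were calcium-phosphate co-transfected with the HIV-1 LTR-luciferase reporter plus HIV-1 Tat, or the HTLV-1 LTR-luciferase reporter plus HTLV-1 Tax, each with a human ORF expression plasmid. A hit required relative activity ≥2 or ≤0.5 with paired t-test p<0.05.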

[2] = tested on: HTLV-1 LTR promoter transactivation by HTLV-1 Tax; experiment: Transactivation assay, HTLV-1 LTR luciferase reporter with HTLV-1 Tax; format: cell-based; settings: HEK293 cells co-transfected with pHTLV1LTR-Luc, HTLV-1 Tax and the human ORF; relative luciferase activity 24 h post-transfection; positive if >=2 or <=0.5 and p<0.05

Row | Molecule | HIV_LTR transactiv. [1] [fold change] | HTLV_LTR transactiv. [2] [fold change]
1 | C10orf3: human host interactor protein, Gene ID 55165, expressed from transfected ORF vector (protein) MSSRSTKDLIKSKWGSKPSNSKSETTLEKLKGEIAHLKTSVDEITSGKGKLTDKERHRLLEKIRVLEAEKEKNAYQLTEKDKEIQRLRDQLKARYSTTTLLEQLEETTREGERREQVLKALSEEKDVLKQQLSAATSRIAELESKTNTLRLSQTVAPNCFNSSINNIHEMEIQLKDALEKNQQWLVYDQQREVYVKGLLAKIFELEKKTETAAHSLPQQTKKPESEGYLQEEKQKCYNDLLASAKKDLEVERQTITQLSFELSEFRRKYEETQKEVHNLNQLLYSQRRADVQHLEDDRHKTEKIQKLREENDIARGKLEEEKKRSEELLSQVQFLYTSLLKQQEEQTRVALLEQQMQACTLDFENEKLDRQHVQHQLHVILKELRKARNQITQLESLKQLHEFAITEPLVTFQGETENREKVAASPKSPTAALNESLVECPKCNIQYPATEHRDLLVHVEYCSK | 2.79 | 0.41
2 | ZNF614: human host interactor protein, Gene ID 80110, expressed from transfected ORF vector (protein) MIKTQESLTLEDVAVEFSWEEWQLLDTAQKNLYRDVMVENYNHLVSLGYQTSKPDVLSKLAHGQEPWTTDAKIQNKNCPGIGKVDSHLQEHSPNQRLLKSVQQCNGQNTLRNIVHLSKTHFPIVQNHDTFDLYRKNLKSSLSLINQKRRHGINNPVEFIGGEKTLLHGKHERTHTKTRFSENAKCIHTKFQVFKHQRTQKIEKPHACIECEQTFLRKSQLIYHENICIQENPGSGQCEKLSRSVLFTKHLKTNTTDKICIPNEYRKGSTVKSSLITHQQTHTEEKSYMCSECGKGFTMKRYLIAHQRTHSGEKPYVCKECGKGFTVKSNLIVHQRTHTGEKPYICSECGKGFTMKRYLVVHQRTHTGEKPYMCSECGKGFTVKSNLIVHQRSHTGEKSYICSECGKGFTVKRTLVIHQRTHTGEKSYICNECGKGFTTKRTLIIHQRTHTGEKPYECNECGKAFSQKICLIQHERCHTGKTPFVCTECGKSYSHKYGLITHQRIHTGEKPYECNECGKAFTTKSVLNVHQRTHTGERPYGCSDCEKAFSHLSNLVKHKKMHTREMGRISQVENSCNGESQLLPYK | 0.28 | 5.24
3 | TSC22D4: human host interactor protein, Gene ID 81628, expressed from transfected ORF vector (protein) MSGGKKKSSFQITSVTTDYEGPGSPGASDPPTPQPPTGPPPRLPNGEPSPDPGGKGTPRNGSPPPGAPSSRFRVVKLPHGLGEPYRRGRWTCVDVYERDLEPHSFGGLLEGIRGASGGAGGRSLDSRLELASLGLGAPTPPSGLSQGPTSWLRPPPTSPGPQARSFTGGLGQLVVPSKAKAEKPPLSASSPQQRPPEPETGESAGTSRAATPLPSLRVEAEAGGSGARTPPLSRRKAVDMRLRMELGAPEEMGQVPPLDSRPSSPALYFTHDASLVHKSPDPFGAVAAQKFSLAHSMLAISGHLDSDDDSGSGSLVGIDNKIEQAMDLVKSHLMFAVREEVEVLKEQIRELAERNAALEQENGLLRALASPEQLAQLPSSGVPRLGPPAPNGPSV | 5.43 | 3.75
